# Results published in the nanobody polyreactivity screen of Harvey et al. (2022).
# Experiment: yeast display, Sf9 membrane polyspecificity reagent, FACS + sequencing; frameworks hold sequencing errors
# Procedure, shortened: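 Polyreactivity labels are assigned by the sorting gate from which each nanobody was recovered. The gates were low and high (top ~1%), set on anti-HA fluorescence for expression and streptavidin fluorescence for reagent binding. Before sorting, galactose-induced (36–48 hours) yeast display cells were stained for 1 hour at 4 °C with 10% biotinylated, detergent-solubilized Sf9 membrane reagent.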
row,Sequence,polyreactivity (PSR sort gate)
1,QVQLEESGGGLVQAGGSLRLSCAASGRTFVPYVMGWYRQAPGKEMELVATINWSGGSTYYADSVKGRFTISRDNAKNTVYLQMNSLKPEDTADYYCAARYYSDWFYYLFRYDYWGQGTQVTVSS,low polyreactivity
2,QVQLVESGGGLVQEGGSLRLSCAASGNIFRAYGMGWYRQAPGKERELVAAIDTTGGRTYYADSVKGRFTISRDNAKNTVYLQMNSLKPEDTAVYYCAVRAPAYPYYRGFDYWGQGTQVTVSS,low polyreactivity
3,QVQLVESGGGLVQAGGSLRLSCAASGRIFVTNAMGGYRQAPGKEREFVAGISFSGDGRTYYADSVKGRFTISRDNAKNTVYLQMNSLKPEDSAVYYCAAPHRSRTHELDYWGQGTQVTVSS,low polyreactivity
4,QVQLLESGGGLVQPGGSLRLSCAASGSTFIGYAMGWYRQAPGKETELVAAISWSGGRTYYADSVKGRFTISRDNAKNTVYLQMNSLKAEDTAVYYCNTVPYRISVQFNYWGQGTQVTVSS,high polyreactivity
5,QMQLQESGGGLVQAGGSQRLSCAASDSISIGAGMGWYRQAPGKERELVAGISVGTSTNYADSVNGRFTISRVNAKNTVYLQMNSLKPEDTAVYYCAKGYRRVYGPFYYWGQGTQVTVSS,low polyreactivity
6,QVQLVESGGGLVQAGGSLRLSCAASGITFYGNAMGWYRQAPGKERELVAAINWGGTGTYYADSVKGRFTISRDNAKNTVYLQMNSLKPEDTAVYYCAAEVYTWGQGTQVTVSS,low polyreactivity
7,QVQLVESGGGLVQAGGSLRLSCAASGRIFSQYAMGWYRQAPGKERELVAAISRRTGSTYYADSVKVRFTISRDNAKNTVYLQMNSLKPDDTAVYFCNKARLGWSYRQDDYWGQGTQVTVSS,high polyreactivity
8,QVQLVETGGGLVQAGGSLRLSCAASGRTFSRNAMGWYRQAPGKERELVAAISQRGVSTYYADSVKGRFTISRDNAKNTVYLQMNSLKPEDTAVYYCNTRGTYRYDYWGQGTQVTVSS,low polyreactivity
9,QVQLVESGGGLVQAGGSLRLSCAASGRTFFWYAMGWYRQAPGKEREFVAAITWRTGSTYYADSVKGRFTISRDNAKNTVYLQMNSLKPEDTAVYYCAAEYPWSYATYYYWGQGTQVTVSS,high polyreactivity
10,QVQLVESGGGLVQAGGSLRLSCAASGSTFYRYAMGWYRQAPGKERELVARITWSAGRTYYADSVKGRFTISRDTAKNTVYLQMNSLKPEDTAVYYCAADSGGFASNKRMDYWGQGTQVTVSS,high polyreactivity
11,QVQLVESGGGLVQAGGSLRLSCAASGRIFAYYAMGWYRQAPGKERELVATISVTGGSTYYADSVKGRFTISRDNAKNTVYLQMNSLKPEDTAVYYCNVDPGTYWPYSGEDYWGQGTQVTVSS,low polyreactivity
12,QVQLVESGGGLVQAGGSLSLSCAASGSTFVENAMGWYRPAPGKERELVAGISIGGITYYADSVKGRFTISRDNAKNTVYLQMNSLKPEDTAVYYCGKRHKRTRNKYYYWGQGTQVNVSS,high polyreactivity
13,QVQLEESGGGLVQAGGILRFSCAASGYTFRGYAMGWYRQAPGKEREFVAAIRNSGDSSYYADSVKGRFTISRDNAKNTVYLQRHSLKPEDTAVYYSAAYSRSSKYDYWGQGSQVTVSS,low polyreactivity
14,QVQLVESGGGLVQAGGSLRLSCAASGFIFFANAMGWYRQAPGKESELVADITWSGGTTYYADSVKGRFTISRDNAKNTVYLQMNSLKPEDTAVYYCAARGWASTWYYYWGQGTQVTVSS,high polyreactivity
15,QVQLVESGGGLVQAGGSLRLSCAASGFIFSGYAMGWYRQAPGKERELVAAITSSGGNTYYADSVKGRFTISRDNAKNTVYLQMNSLKAEDTAVYYCARYSIFRWTRDEYWGQGTQVTVSS,high polyreactivity
16,QVQRVESGGGLVQARGSLRLSCAASGRIFTKYAMGWYRQAPGKVRELVAGITSRGGSTYYADSVKGRFTISRDIANNTGYLQMNSLKPEDTAVYYCNAYRVGRYDYWGQGTQVTVSS,high polyreactivity
17,QVQLVESGGGLVQAGGSLRLSCAASGRIFNANAKGWYRQAPWKERELVAAITYSGGSTYYADSVKGRFTISRDNAKNTVYLQKNSLKPEDTAVYYCNVDYAGPYDYWGQGTQVTVSS,low polyreactivity
18,QVQLEESGGGLVQAGGSLRLSCAASGLIFGKYAMGWYRTAPGKERELVAAITSSGGGTYYADSVKGRFTISRDNAKNTVYLQMNSLKPEDTAVYYCSTGPDPKYDYWGQGTQVTVSS,high polyreactivity
19,QVQLVESGGGLVQAGGSLRLSCAASGYTFAVYAMGWYRQAPGKERELVAAISSDGSTNYADSVKGRFTISRDNAKNTVYFQMNSLKPEDTSVYYCAKVYKDLAGPFYDYWGQGTQVTVSS,low polyreactivity
20,QFQLVESGGGLVQAGGSLRLSCAASGRIFCRYAMGWYRQAPGKETELVPVISARGARTYYEDSVKGRFTISRDNAKYTVYLQMNSLKPEDTAVYYCNKVGVLSGYYYPHASGDYWGQGTQVTVSS,high polyreactivity
21,QVQRVESGGGLVQAGGSLRLSCAASGSIFYQYAMGWYRQAPGKEREVVAAITIGGSTNYADSVKGRFTISRDNAKNTVYLQMNSLKPEDTAVYYCNADKNWYGHEYDYWGQGTQVTVSS,low polyreactivity
22,QVQLVESGGGLVQAGGSLRLSCAASGRIFSNYAMGWYRQAPGKERELVAAISRGGGRTFYADSVKGRFTISRDNAKNTVYLQMNSLKPEDTAVYYCATRSYYVKGDYWGQGTQVNVSS,high polyreactivity

row,Sequence,polyreactivity (PSR sort gate)
1,QVQLVESGGGLFQAGGSLRLSCAASGFTFSNYAMGWYRKAPGKERELVAAITRRGGRTRYADSVKGRFTISRDNAKNTVYLQMNSLKPEDTAVYYCARSRYRYIVTTLYLYDYWGQGTQVTVSS,high polyreactivity
2,QVQLVESGGGLVQAGGSLRLSCAASGRTFKYYAMGWYRQAPGKERELVAAITASDGSTYYADSVKGRFTISRDNAKNTVYLQMNSLKPEDTAVYYCAAVPYRYTYDYWGQGTQVTVSS,high polyreactivity
3,QVQIVESGGGLVQAGGSLRLSCAASGSIFIFYAMGWYRQAPGKERELVADITSDGASTYYADSVKGRFTISRDNAKNTVYLQMNSLKPEDTAVYYCAADYIDSSAYDYWGQGTQVTVSS,low polyreactivity
4,QVQLVESGGGLVQAGGSLRLSCAASGRTFYNAMGWYRQAPGKERELVAAITTGGGTKYADSVKGRFTISRDNAKNTVYLQMNSLKPEDTEVYYCATDAPDRTHSDSGFDAGYDYWGQGTQVTLSS,low polyreactivity
5,QVQLQESGAGLVQAGGSLRLCCAASGSIFYVYGMGWYRQAPGKERELVAGINAGTNTNYADSVRGRFTISRDNAKNTVHLQMNSLKPEDTAVYYCAADGNGYQAHEYWGQGTQVTVSS,high polyreactivity
6,QVQLVESGGGLVQAGGSLRLSCAASGSIFQENAMGWYRQAPGKERELVAAINTGSITSYADSVKGRFTISRDNAKNTVYLQMNSLKPEDTAVYYCAADSFSLYDSWGQGTQVTVSS,low polyreactivity
7,QVQLVESGGGLVQAGGSLRLSCAASGFTFTGNAMVWYRQAPGKERELVAAIRGSGGSTYYADSVKGRFTISRDNAKNTVNLQMKSLKPDVTAVYYCATYYIRNKGFDYWGQGTQVTVSS,high polyreactivity
8,QVQLVESGGGIVQPGGSLRLSCAASGSIFGYNAIGWYRQAPGKERELVAAISTSSGSTYYADSVKGRFTISRDNAKNTVFLQMNSLKPEDTAVYYCAARDRPFGRYDYWGQATQVTVSS,low polyreactivity
9,QLQHVESGGGLVQAGGSLRLSCAGTGRIMWRNAMGWYRQAPGKEMELVAAITSGSRTSYADSVKGRFTISRDNSKNTVYLQMNSLKPEDTAVYYCARRSYGIYYRSADESWGQGTQVTVSS,high polyreactivity
10,QVQLVESGGGLVQAGGSLRLSCAASGRTFYYYAMGWYRQAPGKERELVAAISSSTGRTYYADSVKGRFTISRDNAKNTVYLQMNSLKPEDTAVYYCAKYRVFGYQFDYWGQGTQVTVSS,high polyreactivity
11,QVQLVESGGGLVQAGGSLRLSCAASGSTFFSNAMGRYRQAPGKERELVAAISWSGGSTYYADSVKGRFTISRDNAKNTVYLKLNSLKPEDTAVYYCGADYYGYWYDFEGDHWGQGTQVTVSS,low polyreactivity
12,QVQLVESCGGLVQAGVSLRLSCAASVFKYAMGRYRQAPGKKRELVAAISSGGITSYADSVKGRFTISRDNAKNTVYLQMNSLKPEDTAVYYCNARLRHSQYAYYYWGQGTQVTLSS,high polyreactivity
13,QVQLVESGGGLVQAGGIHRLSCASTGRTFPAYAMGWYRQAPGKERELVAAITINGGYTYYADSVKGRFTISRDNAKNSVYLQMKSLKPEDTAVYYCAAYYDSPSHGYWGQVTQVTVSS,low polyreactivity
14,QVQLVESGGGLVQAGGSLRLSCAASGYIFNYYGMGWYRQAPGKDRELVATISRGASTNYADSVKGRFTISRDNARNTVYFQMNTLKPEDTAVYYCAYWGQRTQVTVSS,low polyreactivity
15,QVQLVESGGALVQAGGSLRLSCAASGSTFEDYAMRSSRQAPGKARELVAAISHIGGSTYYADSVKGRFTISRDNAKNTVYLQMNSLKPEDTAVYYCAKGVYSDLGYWAQGTQVTVSS,low polyreactivity
16,QVQLVESGGGLVQAGGSLRLSCAASGRSFSYNAMGWYRQAPGKERELVAAISYGGGRTYYADSVKGRFTISRDNAKNTVYLQMNSLKPEDTAVYYCNRYGRQYDFYYWGQGTQVSVSS,high polyreactivity
17,QVQLVESGGGLVQAGGSLRLSCASSGIIFNVYAMGWYRQAPGKERELVAAISSTSSTYADSVKGRFTISRDNAKNTVYLQMNSLKPEDTAVYYCNTDYSDGYPAFAYWGQGTQVTVSS,low polyreactivity
18,QVKLVESGGGLVQAGGSLRLSCAASGSTFVGYAMGWYRQAHGKERELVAAINDSGGSTYYADSVKGRFTISRDNAKNTVYLQMNSLKPEDTAVYYCAADSSGTSWYTFDYWGQGTQVTVSS,low polyreactivity
19,QVQLVESGGGLVQAGGSLRLSCAASGSTFSFNDMGWYRQAPGKERELVADISWSGDTTYADSVKGRFTISRDNAKKTVYLQMNSLKPEDTGVYYCDADRHRYQGYTYDYWGQGTQVTVSS,high polyreactivity
20,QVQLVESGGGLVQAGGSLRLSCAASGNIFYLYAMGWYRQAPGKEREFSTSYADSVKGRFTISRDNAKNTVYLQMNSLKPEDTAVYYCAAYKSRGPYYYLFDYWGQGTQVTVSS,low polyreactivity
21,QVQLVESGGGLVQAGGSLRLSCAASGRILRTYAMGWYRPAPGKERELVAAISRSGGSTYYADSVKGRFTISRDNAKNTVYLQMNSLKPEDTAVYYCNKAYGGRGYKYEYWGQGTQVTVSS,high polyreactivity
